From PMC3715429

Target: EphrinA2 (EphA2) receptor tyrosine kinase (human (endogenous in HFF)) (UniProt P29317)
Assay: co-IP; lysates of c-Cbl siRNA-transfected HFF cells infected with KSHV for 5 min; IP with anti-EphA2 antibody, Western blot for clathrin; compared with control siRNA cells

clathrin heavy chain (from UniProt Q00610 1-1675) (natural protein)
fold reduction of the co-IP in c-Cbl siRNA cells against control siRNA cells: 8 fold
